The text below walks through data of paper PMC10769878 (2024).

A word on the Kd: it is a measure of binding affinity in units of concentration. Read a high Kd as lower affinity. By koff is commonly meant the rate constant with which the complex falls apart. Low values mean a long-lived complex, high ones a short-lived complex.

The chains are these.
B1: AimX (natural protein)
chain: MKRALGKAISYEEMAKGYEEMAAINSIIAQEDNHLENEAEMIKTRYKTLAS
B2: MazF (enzyme)
chain: MIVKRGDVYFADLSPVVGSEQGGVRPVLVIQNDIGNRFSPTAIVAAIAAQIQKAKLPTHVEIDAKRYGFERDSVILLEQIRTIDKQRLTDKITHLDDEMMDKVDEALQISLALIDF
B3: MazE (natural protein)
chain: MSESSARTEMKISLPENLVAELDGVAMREKRSRNELISQAVRAYVSERTTRHNRDLMRRGYMEMAKINLNISSEAHFAECEAETTVERLVSGG

Holding throughout (test): BLI
In experiment [1] the target is T1, phi3T_93 (Bacillus subtilis phage phi3T).
T1 chain: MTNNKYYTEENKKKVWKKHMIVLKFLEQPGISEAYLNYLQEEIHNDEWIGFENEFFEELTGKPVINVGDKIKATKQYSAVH

The target in experiment [2] is B2.
The target in experiment [3] is T1, phi3T_93.
Experiment [4] concerns the target B2.
Experiment [5] deals with T2, YosL^phi3T (Bacillus subtilis phage phi3T).
T2 chain: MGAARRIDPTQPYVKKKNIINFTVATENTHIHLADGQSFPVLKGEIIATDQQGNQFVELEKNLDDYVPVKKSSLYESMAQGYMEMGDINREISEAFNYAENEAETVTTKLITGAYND

Experiment [6] deals with T3, YosL^SPβ (Bacillus subtilis phage SPβ, UniProt O31877 1-117).
T3 chain: T2 chain

The target in experiment [7] is T2, YosL^phi3T.
Experiment [8] addresses T3, YosL^SPβ.

As for B1, the dissociation constant Kd is 0.184 µM in the experiment with phi3T_93 [1] and 0.0813 µM with MazF [2]. Also, the values for the koff in the experiment with phi3T_93 [3] and with MazF [4] were 0.045 s⁻¹ and 0.0066 s⁻¹, respectively.

Consider B2, for which the values for the Kd in the experiment with YosL^phi3T [5] and in the experiment with YosL^SPβ [6] were 0.0202 µM and 0.015 µM, respectively. The koff was found to be 0.00033 s⁻¹ with YosL^phi3T [7] and 0.00085 s⁻¹ with YosL^SPβ [8].

As for B3, the Kd was found to be 0.0273 µM in the experiment with phi3T_93 [1] and 0.404 µM with MazF [2]. Moreover, the koff with phi3T_93 [3] stood at 0.0013 s⁻¹; with MazF [4] it was 0.01 s⁻¹.
